Measurements from article PMC9482650, “Quantitative fragmentomics allow affinity mapping of interactomes” (Nature Communications, 2022).

T1: FRMPD1, Q5SYB0
T1 sequence (Q5SYB0 52-145, limits assumed, looked up): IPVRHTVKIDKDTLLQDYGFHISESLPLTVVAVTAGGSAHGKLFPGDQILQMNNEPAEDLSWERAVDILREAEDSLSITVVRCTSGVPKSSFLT

T2: ARHGAP21, Q5T5U3
T2 sequence (Q5T5U3 45-169, limits assumed, looked up): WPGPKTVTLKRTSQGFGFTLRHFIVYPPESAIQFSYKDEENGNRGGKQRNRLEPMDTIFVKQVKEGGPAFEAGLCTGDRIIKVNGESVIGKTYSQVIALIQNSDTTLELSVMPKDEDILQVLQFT

T3: PCLO, Q9Y6V0
T3 sequence (Q9Y6V0 4491-4600, limits assumed, looked up): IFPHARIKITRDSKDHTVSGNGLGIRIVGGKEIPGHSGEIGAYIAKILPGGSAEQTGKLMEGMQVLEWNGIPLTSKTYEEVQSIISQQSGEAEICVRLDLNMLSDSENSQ

T4: GRIP1_5, Q9Y3R0
T4 sequence (Q9Y3R0 568-668, limits assumed, looked up): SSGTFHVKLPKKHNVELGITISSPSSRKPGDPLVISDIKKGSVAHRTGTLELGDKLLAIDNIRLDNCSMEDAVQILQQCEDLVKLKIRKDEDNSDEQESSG

T5: SYNJ2BP, P57105
T5 sequence (P57105 8-110, limits assumed, looked up): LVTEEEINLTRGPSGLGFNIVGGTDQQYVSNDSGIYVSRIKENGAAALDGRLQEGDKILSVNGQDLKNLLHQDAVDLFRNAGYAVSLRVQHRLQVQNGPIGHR

T6: GRIP1_7, Q9Y3R0
T6 sequence (Q9Y3R0 999-1096, limits assumed, looked up): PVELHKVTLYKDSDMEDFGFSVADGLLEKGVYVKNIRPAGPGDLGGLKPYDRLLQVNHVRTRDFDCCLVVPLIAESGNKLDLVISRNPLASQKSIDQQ

T7: LIN7A, O14910
T7 sequence (O14910 103-200, limits assumed, looked up): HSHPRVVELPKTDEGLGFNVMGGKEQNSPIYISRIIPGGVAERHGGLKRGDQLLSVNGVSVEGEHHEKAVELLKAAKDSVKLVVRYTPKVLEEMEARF

T8: MPP6, Q9NZW5
T8 sequence (Q9NZW5 125-219, limits assumed, looked up): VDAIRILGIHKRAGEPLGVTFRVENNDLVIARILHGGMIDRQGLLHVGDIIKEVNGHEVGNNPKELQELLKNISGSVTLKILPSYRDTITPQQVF

T9: PTPN13_1, Q12923
T9 sequence (Q12923 1088-1188, limits assumed, looked up): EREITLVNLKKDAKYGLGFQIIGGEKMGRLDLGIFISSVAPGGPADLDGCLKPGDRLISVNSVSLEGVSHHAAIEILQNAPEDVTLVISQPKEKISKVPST

T10: MPP7, Q5T2T1
T10 sequence (Q5T2T1 134-230, limits assumed, looked up): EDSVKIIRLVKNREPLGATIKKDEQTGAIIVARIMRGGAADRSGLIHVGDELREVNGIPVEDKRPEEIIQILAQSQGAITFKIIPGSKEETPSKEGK

T11: PDZRN3_1, Q9UPQ7
T11 sequence (Q9UPQ7 244-349, limits assumed, looked up): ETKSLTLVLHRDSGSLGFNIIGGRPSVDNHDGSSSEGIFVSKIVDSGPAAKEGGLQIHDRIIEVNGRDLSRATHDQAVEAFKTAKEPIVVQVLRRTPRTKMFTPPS


Experiments:
Assay in all cases: holdup assay
Set-up in all cases: key: below the threshold = too weak to quantify, mostly under pKd 3.1 to 4
Conditions in all cases: plain residues with an end cap or a label only (N-terminal biotin on a linker: ado-ado)
FRMPD1, Q5SYB0 = target: T1, FRMPD1, Q5SYB0
DLG4_1, P78352 = target: DLG4_1, P78352
Sequence of DLG4_1, P78352 (P78352 62-152): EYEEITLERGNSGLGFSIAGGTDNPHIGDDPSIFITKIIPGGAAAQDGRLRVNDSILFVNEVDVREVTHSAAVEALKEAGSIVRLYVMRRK

ARHGAP21, Q5T5U3 = target: T2, ARHGAP21, Q5T5U3
MAGI2_3, Q86UL8 = target: MAGI2_3, Q86UL8
Sequence of MAGI2_3, Q86UL8 (Q86UL8 600-682): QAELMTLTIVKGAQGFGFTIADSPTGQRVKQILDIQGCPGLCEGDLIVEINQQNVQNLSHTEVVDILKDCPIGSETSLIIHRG

MAGI2_5, Q86UL8 = target: MAGI2_5, Q86UL8
Sequence of MAGI2_5, Q86UL8 (Q86UL8 915-1017): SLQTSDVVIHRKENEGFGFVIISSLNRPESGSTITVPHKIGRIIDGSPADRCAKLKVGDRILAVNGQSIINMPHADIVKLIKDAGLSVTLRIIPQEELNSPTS

MAGI1_1, Q96QZ7 = target: MAGI1_1, Q96QZ7
Sequence of MAGI1_1, Q96QZ7 (Q96QZ7 1-106): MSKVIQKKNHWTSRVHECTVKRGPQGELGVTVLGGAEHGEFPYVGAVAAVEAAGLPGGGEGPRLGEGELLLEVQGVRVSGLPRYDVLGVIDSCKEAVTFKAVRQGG

GRID2IP_1, A4D2P6 = target: GRID2IP_1, A4D2P6
Sequence of GRID2IP_1, A4D2P6 (A4D2P6 1-87): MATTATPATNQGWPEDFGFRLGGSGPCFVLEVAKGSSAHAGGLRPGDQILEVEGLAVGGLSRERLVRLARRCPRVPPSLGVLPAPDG

MAGI1_2, Q96QZ7 = target: MAGI1_2, Q96QZ7
Sequence of MAGI1_2, Q96QZ7 (Q96QZ7 456-580): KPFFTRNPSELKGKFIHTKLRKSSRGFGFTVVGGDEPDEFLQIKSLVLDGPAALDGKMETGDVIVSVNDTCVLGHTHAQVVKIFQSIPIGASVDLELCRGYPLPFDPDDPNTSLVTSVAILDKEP

GRIP2_3, Q9C0E4 = target: GRIP2_3, Q9C0E4
Sequence of GRIP2_3, Q9C0E4 (Q9C0E4 238-339): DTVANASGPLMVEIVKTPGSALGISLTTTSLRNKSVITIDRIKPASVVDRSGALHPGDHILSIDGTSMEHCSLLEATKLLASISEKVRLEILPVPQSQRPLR

HTRA1, Q92743 = target: HTRA1, Q92743
Sequence of HTRA1, Q92743 (Q92743 360-477): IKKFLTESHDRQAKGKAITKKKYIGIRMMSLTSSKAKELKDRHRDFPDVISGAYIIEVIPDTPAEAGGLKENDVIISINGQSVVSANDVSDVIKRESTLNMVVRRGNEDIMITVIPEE

PCLO, Q9Y6V0 = target: T3, PCLO, Q9Y6V0
GRIP1_5, Q9Y3R0 = target: T4, GRIP1_5, Q9Y3R0
Inadl_3, Q8NI35 = target: Inadl_3, Q8NI35
Sequence of Inadl_3, Q8NI35 (Q8NI35 359-469): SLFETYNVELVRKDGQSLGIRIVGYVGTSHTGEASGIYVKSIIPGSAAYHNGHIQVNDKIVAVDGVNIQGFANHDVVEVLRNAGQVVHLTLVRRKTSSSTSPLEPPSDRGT

SYNJ2BP, P57105 = target: T5, SYNJ2BP, P57105
FRMPD4, Q14CM0 = target: FRMPD4, Q14CM0
Sequence of FRMPD4, Q14CM0 (Q14CM0 67-160): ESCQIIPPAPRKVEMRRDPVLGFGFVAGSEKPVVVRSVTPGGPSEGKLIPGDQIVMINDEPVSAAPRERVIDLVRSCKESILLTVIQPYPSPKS

GRASP, Q7Z6J2 = target: GRASP, Q7Z6J2
Sequence of GRASP, Q7Z6J2 (Q7Z6J2 96-193): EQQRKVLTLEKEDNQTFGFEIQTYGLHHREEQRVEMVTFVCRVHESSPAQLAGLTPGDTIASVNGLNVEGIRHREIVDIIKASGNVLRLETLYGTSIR

SCRIB_2, Q14160 = target: SCRIB_2, Q14160
Sequence of SCRIB_2, Q14160 (Q14160 857-960): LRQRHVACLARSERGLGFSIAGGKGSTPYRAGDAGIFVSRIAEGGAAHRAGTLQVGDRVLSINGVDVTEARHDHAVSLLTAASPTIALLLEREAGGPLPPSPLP

GRIP1_7, Q9Y3R0 = target: T6, GRIP1_7, Q9Y3R0
LIN7A, O14910 = target: T7, LIN7A, O14910
GRIP2_6, Q9C0E4 = target: GRIP2_6, Q9C0E4
Sequence of GRIP2_6, Q9C0E4 (Q9C0E4 648-740): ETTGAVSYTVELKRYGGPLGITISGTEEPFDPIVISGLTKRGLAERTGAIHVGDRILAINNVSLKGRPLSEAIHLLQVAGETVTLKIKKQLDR

MPP6, Q9NZW5 = target: T8, MPP6, Q9NZW5
NHERF4_2, Q86UT5 = target: NHERF4_2, Q86UT5
Sequence of NHERF4_2, Q86UT5 (Q86UT5 220-308): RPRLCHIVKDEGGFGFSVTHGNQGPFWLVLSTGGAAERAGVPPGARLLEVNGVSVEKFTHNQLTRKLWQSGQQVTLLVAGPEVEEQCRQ

Inadl_4, Q8NI35 = target: Inadl_4, Q8NI35
Sequence of Inadl_4, Q8NI35 (Q8NI35 547-651): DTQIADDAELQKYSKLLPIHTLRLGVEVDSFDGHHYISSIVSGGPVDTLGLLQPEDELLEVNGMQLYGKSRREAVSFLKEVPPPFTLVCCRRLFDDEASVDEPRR

MAST2, Q6P0Q8 = target: MAST2, Q6P0Q8
Sequence of MAST2, Q6P0Q8 (Q6P0Q8 1099-1202): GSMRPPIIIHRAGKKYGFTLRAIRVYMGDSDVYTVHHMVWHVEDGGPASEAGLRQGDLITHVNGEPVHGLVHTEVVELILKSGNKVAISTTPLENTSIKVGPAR

PTPN13_1, Q12923 = target: T9, PTPN13_1, Q12923
MPP7, Q5T2T1 = target: T10, MPP7, Q5T2T1
PDZRN3_1, Q9UPQ7 = target: T11, PDZRN3_1, Q9UPQ7

| Binder | pKd (FRMPD1, Q5SYB0) | pKd (DLG4_1, P78352) | pKd (ARHGAP21, Q5T5U3) | pKd (MAGI2_3, Q86UL8) | pKd (MAGI2_5, Q86UL8) | pKd (MAGI1_1, Q96QZ7) | pKd (GRID2IP_1, A4D2P6) | pKd (MAGI1_2, Q96QZ7) | pKd (GRIP2_3, Q9C0E4) | pKd (HTRA1, Q92743) | pKd (PCLO, Q9Y6V0) | pKd (GRIP1_5, Q9Y3R0) | pKd (Inadl_3, Q8NI35) | pKd (SYNJ2BP, P57105) | pKd (FRMPD4, Q14CM0) | pKd (GRASP, Q7Z6J2) | pKd (SCRIB_2, Q14160) | pKd (GRIP1_7, Q9Y3R0) | pKd (LIN7A, O14910) | pKd (GRIP2_6, Q9C0E4) | further results |
| --- | --- | --- | --- | --- | --- | --- | --- | --- | --- | --- | --- | --- | --- | --- | --- | --- | --- | --- | --- | --- | --- |
| VKPQVSESKL [ACOT8, O14734] | below the threshold | below the threshold | below the threshold | below the threshold | below the threshold | below the threshold | below the threshold | below the threshold | below the threshold | below the threshold | below the threshold | below the threshold | below the threshold | 3.75 | 3.8 | below the threshold | 3.52 | below the threshold | below the threshold | below the threshold | pKd (MPP6, Q9NZW5): below the threshold; pKd (NHERF4_2, Q86UT5): below the threshold; pKd (Inadl_4, Q8NI35): below the threshold; pKd (MAST2, Q6P0Q8): 5.52; pKd (PTPN13_1, Q12923): below the threshold; pKd (MPP7, Q5T2T1): below the threshold; pKd (PDZRN3_1, Q9UPQ7): 3.68 |
| KKAPTNEFYA [SDC4, P31431] | below the threshold | below the threshold | below the threshold | below the threshold | below the threshold | below the threshold | below the threshold | below the threshold | below the threshold | 4.41 | below the threshold | below the threshold | below the threshold | below the threshold | 3.49 | below the threshold | below the threshold | below the threshold | below the threshold | 3.56 | pKd (MPP6, Q9NZW5): 3.91; pKd (NHERF4_2, Q86UT5): below the threshold; pKd (Inadl_4, Q8NI35): below the threshold; pKd (MAST2, Q6P0Q8): below the threshold; pKd (PTPN13_1, Q12923): below the threshold; pKd (MPP7, Q5T2T1): below the threshold; pKd (PDZRN3_1, Q9UPQ7): below the threshold |
| QGPVETESVV [SLC45A4, Q5BKX6] | below the threshold | 4.33 | 4.14 | 3.65 | 4.55 | below the threshold | below the threshold | below the threshold | below the threshold | 4.55 | below the threshold | below the threshold | 3.96 | 4.49 | below the threshold | 3.48 | 3.67 | below the threshold | below the threshold | below the threshold | pKd (MPP6, Q9NZW5): below the threshold; pKd (NHERF4_2, Q86UT5): below the threshold; pKd (Inadl_4, Q8NI35): 3.63; pKd (MAST2, Q6P0Q8): 4.73; pKd (PTPN13_1, Q12923): below the threshold; pKd (MPP7, Q5T2T1): below the threshold; pKd (PDZRN3_1, Q9UPQ7): 3.72 |

More lines, main results first:

| pKd (FRMPD1, Q5SYB0) | pKd (DLG4_1, P78352) | pKd (ARHGAP21, Q5T5U3) | pKd (MAGI2_3, Q86UL8) | pKd (MAGI2_5, Q86UL8) | pKd (MAGI1_1, Q96QZ7) | pKd (GRID2IP_1, A4D2P6) | pKd (MAGI1_2, Q96QZ7) | pKd (GRIP2_3, Q9C0E4) | pKd (HTRA1, Q92743) | pKd (PCLO, Q9Y6V0) | pKd (GRIP1_5, Q9Y3R0) | pKd (Inadl_3, Q8NI35) | pKd (SYNJ2BP, P57105) | pKd (FRMPD4, Q14CM0) | pKd (GRASP, Q7Z6J2) | pKd (SCRIB_2, Q14160) | pKd (GRIP1_7, Q9Y3R0) | pKd (LIN7A, O14910) | pKd (GRIP2_6, Q9C0E4) | Binder | further results |
| --- | --- | --- | --- | --- | --- | --- | --- | --- | --- | --- | --- | --- | --- | --- | --- | --- | --- | --- | --- | --- | --- |
| below the threshold | 3.51 | 3.94 | 3.63 | below the threshold | below the threshold | below the threshold | below the threshold | below the threshold | 4.4 | below the threshold | below the threshold | 3.57 | 3.88 | below the threshold | 3.82 | below the threshold | below the threshold | below the threshold | below the threshold | FNSYSLTGYV [CLDN2, P57739] | pKd (MPP6, Q9NZW5): below the threshold; pKd (NHERF4_2, Q86UT5): below the threshold; pKd (Inadl_4, Q8NI35): below the threshold; pKd (MAST2, Q6P0Q8): 3.77; pKd (PTPN13_1, Q12923): below the threshold; pKd (MPP7, Q5T2T1): below the threshold; pKd (PDZRN3_1, Q9UPQ7): below the threshold |
| below the threshold | 4.48 | below the threshold | 4.69 | below the threshold | below the threshold | below the threshold | 4.19 | below the threshold | below the threshold | below the threshold | below the threshold | below the threshold | 4.25 | below the threshold | 4.59 | below the threshold | below the threshold | below the threshold | below the threshold | TKGPRGPTRV [SAPCD1, Q5SSQ6] | pKd (MPP6, Q9NZW5): below the threshold; pKd (NHERF4_2, Q86UT5): below the threshold; pKd (Inadl_4, Q8NI35): below the threshold; pKd (MAST2, Q6P0Q8): 4.67; pKd (PTPN13_1, Q12923): below the threshold; pKd (MPP7, Q5T2T1): below the threshold; pKd (PDZRN3_1, Q9UPQ7): 4.03 |
